These results are taken from article PMC6720793 (Molecules, 2019).

This test concerns the target human β2 microglobulin (Homo sapiens, UniProt P61769).

Chain of human β2 microglobulin (P61769 21-119): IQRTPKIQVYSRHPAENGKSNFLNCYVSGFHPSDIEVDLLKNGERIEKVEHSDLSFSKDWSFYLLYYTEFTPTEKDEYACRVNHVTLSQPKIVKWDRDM

B1: CNb1 (VHH)
chain: QVQLQESGGGSVQAGGSLRLSCAASRCWFRQAPGKEREWVARYYADSVKGRFTFSQDNAKNTVYLQMDSLEPEDTATYYCCWGQGTQVTVSS
B1: binding was characterised by a dissociation constant (Kd) of 46 nM. This counts as double-digit nanomolar.
